# Results taken from PMC5538822, “RNA-dependent stabilization of SUV39H1 at constitutive heterochromatin”.
# B1: dsDNA MBP 1-50 (dsDNA)
# DNA 1: ACCAAAATCGAAGAAGGTAAACTGGTAATCTGGATTAACGGCGATAAAGG
# DNA 2: CCTTTATCGCCGTTAATCCAGATTACCAGTTTACCTTCTTCGATTTTGGT
# B2: dsRNA MBP 1-50 (dsRNA)
# RNA 1: ACCAAAAUCGAAGAAGGUAAACUGGUAAUCUGGAUUAACGGCGAUAAAGG
# RNA 2: CCUUUAUCGCCGUUAAUCCAGAUUACCAGUUUACCUUCUUCGAUUUUGGU
# Columns and labels:
# [1] = target: T1, MBP-SUV39H1 1-106 (NTE + chromodomain) (Homo sapiens) (UniProt O43463); experiment: EMSA; conditions: 20 mM Tris-HCl pH 7.4, 50 mM NaCl, 10% glycerol, ~4 U RNase inhibitor, room temperature 10 min; native gel 0.5X TBE at 25 C; filter binding on nitrocellulose …
# T1 sequence: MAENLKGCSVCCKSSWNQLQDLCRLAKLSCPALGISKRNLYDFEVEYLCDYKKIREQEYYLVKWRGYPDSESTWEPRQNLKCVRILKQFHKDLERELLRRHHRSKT
# [2] = target: T2, MBP-SUV39H1 1-106 (NTE + chromodomain) (Homo sapiens, UniProt O43463 1-106); experiment: EMSA; 20 mM Tris-HCl pH 7.4, 50 mM NaCl, 10% glycerol, ~4 U RNase inhibitor, room temperature 10 min; native gel 0.5X TBE at 25 C; filter binding on nitrocellulose in the same buffer; conditions: protein: recombinant, tags: MBP, label: 32P
# T2 sequence: T1 sequence
# [3] = target: T3, MBP-SUV39H1 1-41 (N-terminal extension) (Homo sapiens, UniProt O43463 1-41); experiment: as above; conditions: protein: recombinant; tags: MBP; label: 32P
# T3 chain: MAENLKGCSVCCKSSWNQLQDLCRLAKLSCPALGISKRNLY
# [4] = target: T4, MBP-SUV39H1 107-412 (pre-SET, SET, post-SET) (Homo sapiens, UniProt O43463 107-412); experiment: as above; conditions: protein: recombinant; tags: MBP; label: 32P
# T4 sequence: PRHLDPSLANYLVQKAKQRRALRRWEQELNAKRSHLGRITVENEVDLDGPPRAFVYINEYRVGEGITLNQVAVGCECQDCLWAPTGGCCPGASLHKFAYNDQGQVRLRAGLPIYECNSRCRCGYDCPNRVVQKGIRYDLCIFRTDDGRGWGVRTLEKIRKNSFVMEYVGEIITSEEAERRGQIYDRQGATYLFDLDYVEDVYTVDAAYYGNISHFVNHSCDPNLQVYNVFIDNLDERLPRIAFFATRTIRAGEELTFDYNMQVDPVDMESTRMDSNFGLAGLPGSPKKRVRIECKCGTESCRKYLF
# [5] = target: T5, MBP-SUV39H1 42-106 (chromodomain) (Homo sapiens, UniProt O43463 42-106); experiment: as above; conditions: protein: recombinant; tags: MBP; label: 32P
# T5 sequence: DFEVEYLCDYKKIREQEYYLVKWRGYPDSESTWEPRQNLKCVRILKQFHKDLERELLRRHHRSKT
molecule,measurement,setting,value
alpha-satellite ssRNA (180mer),Kd,[1],23 nM
beta-actin ssRNA (180mer),Kd,[1],32 nM
AUAUGGGAACCACUGAUCC (ssRNA) [sense 19mer ssRNA],Kd,[2],145 ± 9 nM
same,Kd,[3],51 ± 30 µM
same,binding result,[4],no binding
same,Kd,[5],2310 ± 170 nM
GGGAUCAGUGGUUCCCAUA (ssRNA) [antisense 19mer ssRNA],Kd,[2],366 ± 22 nM
"ACCAAAATCGAAGAAGGTAAACTGGTAATCTGGATTAACGGCGATAAAGG (ssDNA) [ssDNA, sense MBP 1-50]",binding result,[2],binds
B1,Kd,[2]; blunt,185 ± 17 nM
B2,binding result,[2]; blunt,binds
"ACCAAAAUCGAAGAAGGUAAACUGGUAAUCUGGAUUAACGGCGAUAAAGG (ssRNA) [ssRNA1, sense MBP 1-50]",Kd,[2],61 ± 5 nM
"CCUUUAUCGCCGUUAAUCCAGAUUACCAGUUUACCUUCUUCGAUUUUGGU (ssRNA) [ssRNA2, antisense MBP 1-50]",Kd,[2],64 ± 3 nM
